Assay results as given in publication PMC11855334, “Exploring the Potential of Glutathione Reductase Overexpression to Improve Tellurium Nanoparticle Production in Escherichia coli” (International Journal of Molecular Sciences, 2025).

B1: glutathione reductase from E. coli (enzyme, UniProt P06715 1-450, looked up)
chain: MTKHYDYIAIGGGSGGIASINRAAMYGQKCALIEAKELGGTCVNVGCVPKKVMWHAAQIREAIHMYGPDYGFDTTINKFNWETLIASRTAYIDRIHTSYENVLGKNNVDVIKGFARFVDAKTLEVNGETITADHILIATGGRPSHPDIPGVEYGIDSDGFFALPALPERVAVVGAGYIAVELAGVINGLGAKTHLFVRKHAPLRSFDPMISETLVEVMNAEGPQLHTNAIPKAVVKNTDGSLTLELEDGRSETVDCLIWAIGREPANDNINLEAAGVKTNEKGYIVVDKYQNTNIEGIYAVGDNTGAVELTPVAVAAGRRLSERLFNNKPDEHLDYSNIPTVVFSHPPIGTVGLTEPQAREQYGDDQVKVYKSSFTAMYTAVTTHRQPCRMKLVCVGSEEKIVGIHGIGFGMDEMLQGFAVALKMGATKKDFDNTVAIHPTAAEEFVTMR
notes: glutathione reductase (GR) of Escherichia coli; cloned in earlier work of the same laboratory; also called E. coli GR; GR; source: E. coli C41 (DE3), purified (HisTrap HP)
B2: glutathione reductase from Enterobacter cloacae strain MF01 (enzyme)
chain: MTKHYDYIAIGGGSGGIASINRAAMYGQKCALIEAKALGGTCVNVGCVPKKVMWHAAQIREAIHMYGPDYGFDTTINHFDWEKLIASRTAYIDRIHTSYDNVLGKNNVDVIHGFARFVDAKTIEVNGETITADHILIATGGRPSHPNIPGAEYGIDSDGFFVLPALPERVAVVGAGYIAVELAGVINGLGAEAHLFVRKHAPLRSFDPLIVDTLVEVMNTEGPTLHTNAVPKAVIKNADGSLTLELEDGRSQTVDCLIWAIGREPANDNFNLAVTGVKTDEKGYIVVDKFQNTSVPGIYAVGDNTGAVELTPVAVAAGRRLSERLFNNKPDEHLDYSNIPTVVFSHPPIGTVGLTEPQAREQYGDDQVKVYKSAFTAMYTAVTSHRQPCRMKLVCVGPEEKIVGIHGIGFGMDEILQGFAVALKMGATKKDFDNTVAIHPTAAEEFVTMR
B3: glutathione reductase from Psychrobacter immobilis strain BNF08 (enzyme)
chain: MTKHYDYIAIGGGSGGIASINRAASYGKKCAVIEANQLGGTCVNLGCVPKKVMWYGAQIAEAIHKYAPDYGFNVDVKGFDFQKLVQSRQQYIENIHRSYDNNLAKNGVEVIKGFAKFVDTNTVEVNGELITADHILIATGGHPIQPDIKGAEYGIDSDGFFALNHLPKRVAIVGAGYIAVEIAGVLNSLGAEVHLYVRQHSPLRSFDHSVVEALLIEMEQDGIQLHTNTTLTEVNKNEDGSLTLCTENGSLDTTDCLIWAIGRAPSTDNINLQVTGVETNEIGKIKVDKFQNTNVKNIYAVGDIIENSVDLTPVAIAAGRRLSERLFNNKPNEHLDYTLIPTVIFTHPAIGTIGLSEIDAVERYGKENIKCYKSTFTSMYSAVTQHRQKCMMKLVCLGDEEKVIGLHGLGFGVDEMIQGFAVAIKMGATKADFDNTVAIHPTGSEEFVTMR

What was measured:
[1] = molecular target: glutathione reductase from Pseudomonas lini strain BNF22 (Pseudomonas lini (strain BNF22)); test: SEC; Superdex 200; 20 mM sodium phosphate pH 7.4, 200 mM NaCl, 1 mM β-mercaptoethanol; elution times compared to a gel filtration protein standard; homodimer
[2] = molecular target: the molecule itself; test: as above

Row | Molecule | stoichiometry N [1] | stoichiometry N [2]
1 | glutathione reductase from Pseudomonas lini strain BNF22 (enzyme) | 2 | 
2 | B1 |  | 2
3 | B2 |  | 2
4 | B3 |  | 2
